The values that follow come from article PMC12624790.

This experiment has as its target His6-3C-SUMO-Sec22 TMD-thrombin-HiBiT.

B1: Δ1-32 Msp1 (enzyme)
chain: DVESGPLSGKSRESKAKQSLQWEKLVKRSPALAEVTLDAYERTILSSIVTPDEINITFQDIGGLDPLISDLHESVIYPLMMPEVYSNSPLLQAPSGVLLYGPPGCGKTMLAKALAKESGANFISIRMSSIMDKWYGESNKIVDAMFSLANKLQPCIIFIDEIDSFLRERSSTDHEVTATLKAEFMTLWDGLLNNGRVMIIGATNRINDIDDAFLRRLPKRFLVSLPGSDQRYKILSVLLKDTKLDEDEFDLQLIADNTKGFSGSDLKELCREAALDAAKEYIKQKRQLIDSGTIDVNDTSSLKIRPLKTKDFTKKLRMDATSTLSSQPLD
B1: the percent of substrate extracted from standard liposomes by Msp1 with ATP (split-luciferase extraction assay, 30 min, 30 °C) was determined as 10%.
